From patent US20230312682A1 (published 2023)

Columns and labels:
CD47-His [1] = target: T1, CD47-His (human, UniProt Q08722 19-139); assay: SPR (Biacore 8K), captured on Protein A chip, CD47-His as analyte
T1 construct: also called Human CD47-His; SIRPα-Fc fusion protein's ligand CD47-His
Protocol: Biacore is a method commonly used for molecular interaction analysis based on the principle of surface plasmon resonance (SPR for short). Here, Biacore was used to determine the affinity of the SIRP mutants described above and anti-CD47 antibodies for the extracellular end of CD47. Experimental method and procedure: The SIRP mutant or anti-CD47 antibodies were diluted to a concentration of 1 μg/mL with HBS-EP⁺ buffer (pH 7.4, purchased from Cytiva, catalog No. BR-1006-69). […] A 6 M solution of guanidine hydrochloride was used as a regeneration buffer. Sensor Chip Protein A (purchased from Cytiva, catalog No. 29-1275-55) was used to capture antibody on Biacore 8K (purchased from GE Healthcare). Then CD47-His was used as an analyte and allowed to flow over the chip, and an association-dissociation curve was obtained. After the chip was regenerated with the regeneration buffer, another cycle was carried out. The data were analyzed using Biacore 8K Evaluation Software.

CD47-His [2] = target: T1, CD47-His; assay: ELISA, plate coated with CD47-His, anti-human Fc-HRP detection
Protocol: Method: Human CD47-His prepared in Example 1.3 was diluted to 100 ng/mL with a sodium carbonate buffer, and then the dilution was added to a microplate at 100 μL per well. The plate was incubated at room temperature for 2 h and washed with PBST. The plate was blocked by adding PBST containing 1% bovine serum albumin (BSA) to each well and incubated at room temperature for 1 h. The plate was washed twice with PBST, and serially diluted antibodies or fusion proteins were added. The plate was incubated for half an hour and washed twice with PBST. A properly diluted HRP-labeled goat anti-human (Fc-Specific) secondary antibody was added, and the plate was incubated for half an hour. After the plate was washed, a color developing solution was added for color development, and the color development was terminated with a stop solution. The OD450 was read using on a microplate reader. The data were analyzed in GraphPad Prism 6 and plotted, and EC₅₀ was calculated.

[3] = target: T2, CD47 on the surfaces of cells (human, UniProt Q08722 19-323); assay: flow cytometry on Daudi cells, FITC anti-human Fc
T2 construct: whole, on cells; The cell type is named in the assay or readout of each row; also called CD47 on the surfaces of Daudi cells; CD47 on the surface of a cell
Protocol: The binding capacity of the prepared SIRP-Fc-IgG1 mutants to CD47 on the surfaces of Daudi cells (human lymphoma cells) was determined by flow cytometry. Experimental procedure: After being counted, Daudi cells were inoculated into a 96-well round-bottom culture plate at 2E5 cells/150 μL by using a PBS solution containing 1% bovine serum albumin (BSA). To the 96-well plate described above were added 50 μL of SIRPα-Fc fusion protein mutants serially diluted with the PBS solution. The plate was incubated at room temperature for 1 h and then centrifuged, and the supernatant was discarded. Then the cells were washed twice with PBS. An FITC-labeled goat anti-human (Fc-Specific) antibody (1:1000 diluted with PBS containing 1% BSA) was added. The plate was incubated at room temperature for half an hour and centrifuged, and the cells were washed and then tested for mean fluorescence intensity (MFI) in the FITC channel on a flow cytometer (CytoFLEX Cytometer System, purchased from Beckman Coulter). The experimental data were processed using the software provided with the flow cytometer, and the mean fluorescence intensity was calculated. The data were analyzed and plotted in GraphPad Prism 6, and EC₅₀ was calculated.

[4] = target: T2, CD47 on the surfaces of cells; assay: cell-based or functional assay
[5] = target: T2, CD47 on the surfaces of cells; assay: cell-based or functional assay; remark: listed apart in the source

B1: anti-CD47B-Hu-IgG1 (antibody, V domains shown)
VH: QVQLVQSGAEVKKPGASVKVSCKASGYTFANHVIHWVRQAPGQGLEWMGYIYPYNDGTKYNEKFKDRVTLTSDKSTSTVYMELSSLRSEDTAVYYCARGGYYTYDDWGQGTLVTVSS
VL: DVVMTQSPLSLPVTLGQPASISCRSSQSLVHSNGKTYLHWYQQRPGQSPRLLIYKVSNRFSGVPDRFSGSGSGTDFTLKISRVEAEDVGVYYCSQSTHVPYTFGQGTKVEIKR
notes: Human IgG1 / kappa
- Kd (CD47-His [1]): 0.104 nM
- koff (CD47-His [1]): 0.00012 s⁻¹
- kon (CD47-His [1]): 1.16e+06 M⁻¹ s⁻¹
- EC50 (CD47-His [2]): 0.0558 nM
- height of top plateau (CD47-His [2]): 0.795 OD450
- EC50 [3]: 0.189 nM
- height of top plateau [3]: 3070 MFI
- ADCC on Daudi cells with human PBMCs, EC50 [4]: 0.197 nM
- ADCC on Daudi cells with human PBMCs, Top (highest degree of ADCC by curve fitting) [4]: 29
- ADCP of Daudi cells by human macrophages, EC50 [5]: 0.019 nM
- ADCP of Daudi cells by human macrophages, Top (highest degree of ADCP by curve fitting) [5]: 12.5
